Laboratory results from the supplement of paper PMC9170038.

Tested on: MS2 coat protein
Test: apparent KD of MS2 coat protein; designed switch direction (-1 OFF switch, 1 ON switch): 1; higher = weaker reporter binding
Summary of the method: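 The buffer was Tris-HCl pH 7.5 with KCl, MgCl2, BSA, DTT, tRNA and Tween-20. In it, SNAP-549-labelled MS2 coat protein was titrated in doubling steps from 0.7 or 1.5 nM to 3 µM over chip-bound RNA switches transcribed by stalled E. coli RNA polymerase on Illumina chips. Apparent KD is the per-design median over clusters of curve fits to normalised fluorescence.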

[1] = input ligand: microRNA oligo, concentration not stated
[2] = Eterna round: R95, input ligand: microRNA oligo, concentration not stated
[3] = Eterna round: R95, input ligand: FMN 200 uM
[4] = Eterna round: R95, input ligand: none

Sequence	apparent KD of MS2 coat protein (input ligand: FMN 200 uM)	apparent KD of MS2 coat protein [1]	apparent KD of MS2 coat protein (input ligand: none)	apparent KD of MS2 coat protein [2]	apparent KD of MS2 coat protein [3]	apparent KD of MS2 coat protein [4]
GGAGCCGGCCUAGGAUAUUUCAUAAUAAAACAUGAGGAUCACCCAUGUAGGCCAGAAGGCCUUGGGAAGAAGGAGGUCGGCUCC [Loop Effect - U26] (Eterna round: R96, puzzle: Same State NG 2)	12.1 nM	30.2 nM	47 nM			
GGAGCUGUUAUAGGAUAUCCCGCUCAUUACGCGGGAGAAGGGUGACGCUCACAUGAGGAUCACCCAUGUGGCGUUCCAAAAUAA [Reesti] (Eterna round: R96, puzzle: Same State NG 1)	8.43 nM	7.1 nM	12.6 nM			
GGAGGACAUGAGGAUCACCCAUGUGGAUGAUCGCUAGGAUAUGCGUGCGGGAGGAGUGGUGCAGAAGGAGUGGGAU [JR_SS1_Sub049] (puzzle: Same State 1)				188 nM		
GGAGGACAUGAGGAUCACCCAUGUGGAUGGGCGCUAGGAUAUGCGAGAGGGUGGAGAGAAGCAGAAGGAGUGGAUA [JR_SS1_Sub038] (puzzle: Same State 1)				62.9 nM	76.7 nM	75 nM
GGAGGGAGGGCGCAGGAUAUCGAUAAUGACACAUGAGGAUCACCCAUGUUUGGUAUUAGAAGGAACGAGAAGGGUGAGAGGAGGG [red_knee_arm] (puzzle: Same State 2)				35.1 nM	36.1 nM	53.2 nM
GGAUCGGAGGCAGGAUAUGGGCUCAGAACAUGAGGAUCACCCAUGUAAAACGGCGCAAUGCGCCACCAGAAGGGCCUCCGACCG [Inmadibi] (Eterna round: R96, puzzle: Same State NG 2)	8.62 nM	17.8 nM	44.7 nM			
GGAUGAUAGACAGGAUAUUGAUUGUAAUUAUGUCAAGAAGGGUCUUUGAUUUAAACGACCAGUUACAUGAGGAUCACCCAUGUU [JR_SSNG1_Sub029] (Eterna round: R96, puzzle: Same State NG 1)		24.1 nM				
GGAUGAUUAAUAGGAUAUUAGUUGUAAAAUGUUUAAGAAGGAUUAAUGAUUUAAACGACCAGUUACAUGAGGAUCACCCAUGUU [JR_SSNG1_Sub093] (Eterna round: R96, puzzle: Same State NG 1)		20.6 nM				
GGCACAAAAGCACAGGAUAUGCAAAAGAACACAUGAGGAUCACCCAUGUAGCCUAAUAAAGGGCAGCAGAAGGGUGGGACUGCCA [Quaat] (puzzle: Same State 2)				239 nM	74.5 nM	239 nM
GGCAUGCGGCGUACCGUAUGCUGGUAUGUACAUGAGGAUCACCCAUGUCAUGUACAGGCUUGUUGCUCGUCUUAUUG [JL-shm-2.41 JL mod] (puzzle: Sensor for hsa-mir-208a)				34.3 nM	137 nM	158 nM
GGCGAAUAAACAUGAGGAUCACCCAUGUAGCGGAGACGCAAUGAGGAUAUCGAUGGGUUUCCCGUCGAGAAGGCAUGGGUCGCC [JL SSNG3 3.93 mod 1] (Eterna round: R96, puzzle: Same State NG 3)	20.8 nM	99.6 nM	140 nM			
GGCUAGCCUCAAGGAUAUACGCUCUCAACAAAGAACCGACUACAUGAGGAUCACCCAUGUACCAUGUAGAAGGUGAGGUUAGCC [Eternabot solution 4] (Eterna round: R96, puzzle: Same State NG 2)		397 nM				
GGGAGAGACGUAGGAUAUGGAAGAAGAUAGAGACUAGAAGGGUGAACAUGAGAAUCGAAGUGUAAAGUGAGAUGAGGUGGGAGA [iteri-1] (Eterna round: R96, puzzle: Same State NG 1)	26.5 nM	16.9 nM	36.9 nM			
GGGCAGAGGGACAAGGAUAUGUCAGGAGAGACAUGAGGAUCACCCAUGUGGAGGUUGGAGCAGAGACAGAAGGUGUACGGAGCGA [JR_SS2_Sub011] (puzzle: Same State 2)				105 nM	34.4 nM	107 nM
GGGUAGAUUUGAGGAUAUCCUUAACCAACAUGAGGAUCACCCAUGUCCAAAAGAGUUCAUUUACCGGAGAAGGCAGAUGCACCC [Eternabot solution 50] (Eterna round: R96, puzzle: Same State NG 2)	74.7 nM	61.4 nM	86.4 nM			
GGUAAGAAUUAAGGAUAUUGAUUACAUAUGUUUAACAUGAGGAUCACCCAUGUGGGUUGCGGUAUCGAGAAGGUAAAAUAAUAG [Mat - same State NG 2 - JL mod - D83] (Eterna round: R96, puzzle: Same State NG 2)	145 nM	170 nM	170 nM			

Sequence	apparent KD of MS2 coat protein (input ligand: FMN 200 uM)	apparent KD of MS2 coat protein [1]	apparent KD of MS2 coat protein (input ligand: none)	apparent KD of MS2 coat protein [2]	apparent KD of MS2 coat protein [3]	apparent KD of MS2 coat protein [4]
GGUACAGUUACAGGAUAUGCUAUCCUUUGGGUAGCAGAAGGGUGGUAACAUGAGGAUCACCCAUGUGUGCCAGGGCGUGAGCCC [JL SSNG1 1.99] (Eterna round: R96, puzzle: Same State NG 1)	502 nM	387 nM	700 nM			
GGUACAUGAGGAUCACCCAUGUCAAAGGCACCGUGCAGACUGGAGGAUAUCACAGCAGAAAGCUGUGAGAAGGCCGUGUAAGCG [Eternabot solution 17] (Eterna round: R96, puzzle: Same State NG 3)	17.4 nM	24.6 nM	42.9 nM			
GGUAGGUUACUACCAAACAUGAGGAUCACCCAUGUAAAUGGGAAGGAUAUGGUACCUAUUUGGUACCAGAAGGUCCAAUUAAUU [JL Fiskers NG3ss - 2 mod 2] (Eterna round: R96, puzzle: Same State NG 3)	670 nM	1720 nM	4550 nM			
GGUAGGUUACUACCAAACAUGAGGAUCACCCAUGUAAGUGGGAAGGAUAUGGUACCGUUUCGGUACCAGAAGGUCCAUAUAGUA [JL Fiskers NG3ss - 2 mod 11] (Eterna round: R96, puzzle: Same State NG 3)	232 nM	658 nM	1530 nM			
GGUAGGUUACUACCAAACAUGAGGAUCACCCAUGUAAGUGGGAAGGAUAUGGUACCUAAAAGGUACCAGAAGGUCCAAUUAAUU [Mat - Same State NG 3 - JL Mod - D98] (Eterna round: R96, puzzle: Same State NG 3)	188 nM	436 nM	584 nM			
GGUAUCGGCACAGGAUAUGCUAUCCUUUGGGUAGCAGAAGGGUGGAACAUGAGGAUCACCCAUGUGGUGCCAGGGCGUGAGCCC [JL SSNG1 1.88] (Eterna round: R96, puzzle: Same State NG 1)	586 nM	125 nM	909 nM			
GGUAUGGACACAGGAUAUGCUUACGAAACGUAAGCAGAAGGGUGAACAUGAGGAUCACCCAUGUACGUACCAGGGCGUGAGCCC [JL SSNG1 1.76] (Eterna round: R96, puzzle: Same State NG 1)	440 nM	157 nM	92.4 nM			
GGUCCAGCCUGAGCUGGACAAAAGCAUGUACAUGAGGAUCACCCAUGUUCAUGUACAAGCUUUUUGCUCGUCUUAUC [salish99_208a_r3_056] (puzzle: Sensor for hsa-mir-208a)				14.6 nM	431 nM	664 nM
GGUCCAGCCUGAGCUGGACCGAAGCAUGUACAUGAGGAUCACCCAUGUCAUGUACAGGCUUUUUGCUCGUCUUAUUG [JL-shm-2.12 JL Mod] (puzzle: Sensor for hsa-mir-208a)				15.7 nM	685 nM	694 nM
GGUCGGACUCACAUGAGGAUCACCCAUGUUCCGGAAACGGGACAGGAUAUCUGUCCGAAAAGGUCAGAGAAGGGUCUACCGACC [Fiskers NG3ss - 54] (Eterna round: R96, puzzle: Same State NG 3)	353 nM	126 nM	289 nM			
GGUCGGACUCACAUGAGGAUCACCCAUGUUGCGGAAACGCCACAGGAUAUCUGUCCGAAAAGGUCAGAGAAGGGUGAACCGACC [Fiskers NG3ss - 63] (Eterna round: R96, puzzle: Same State NG 3)	1460 nM	35.8 nM	214 nM			
GGUGCCAAUAAAGCCUACAUGAGGAUCACCCAUGUAUGUAGGCAGGAUAUCGUUUGCUUUGCAAACGAGAAGGGCCGAGGCACC [JL SSNG3 1.19] (Eterna round: R96, puzzle: Same State NG 3)	20.4 nM	25.1 nM	42.7 nM			
GUAAAACAUGAGGAUCACCCAUGUAAUAAUAUGGGAGGAUAUCAGAUUUAAUUUAAUUUAUGAGAAGGCCUAAAGU [Mat - Same State 1 - Mod of Eli - D63] (puzzle: Same State 1)				16.4 nM	94.4 nM	628 nM
GUAAAACAUGAGGAUCACCCAUGUCAACAAAGUCGAGGAUAUGGGCAAAUAAAAUAAGAACCAGAAGGCGAAUAAC [salish99_SS1_r3_010] (puzzle: Same State 1)				377 nM	45.8 nM	371 nM
GUAAAGAAAUAAGGAUAUUGAAUACAUAUGUUUAACAUGAGGAUCACCCAUGUGGGUUGCGGUAUCGAGAAGGUAUAAUAAAAG [Mat - Same State NG 2 - JL mod - D8] (Eterna round: R96, puzzle: Same State NG 2)	162 nM	171 nM	168 nM			
